Among the data in US20130316951A1 are IC50 of inhibition of ADP-induced platelet aggregation, mouse PRP, aggregometer and treatment concentration giving a similar level of platelet aggregation inhibition values, retold here.

The target in this test is platelet glycoprotein (GP) IIb/IIIa on platelets of mouse platelet rich plasma (mouse) (UniProt Q9QUM0). Description: cell-based or functional assay.
platelet glycoprotein (GP) IIb/IIIa on platelets of mouse platelet rich plasma (mouse), sequence (Q9QUM0 32-1033, chain 1 of 2): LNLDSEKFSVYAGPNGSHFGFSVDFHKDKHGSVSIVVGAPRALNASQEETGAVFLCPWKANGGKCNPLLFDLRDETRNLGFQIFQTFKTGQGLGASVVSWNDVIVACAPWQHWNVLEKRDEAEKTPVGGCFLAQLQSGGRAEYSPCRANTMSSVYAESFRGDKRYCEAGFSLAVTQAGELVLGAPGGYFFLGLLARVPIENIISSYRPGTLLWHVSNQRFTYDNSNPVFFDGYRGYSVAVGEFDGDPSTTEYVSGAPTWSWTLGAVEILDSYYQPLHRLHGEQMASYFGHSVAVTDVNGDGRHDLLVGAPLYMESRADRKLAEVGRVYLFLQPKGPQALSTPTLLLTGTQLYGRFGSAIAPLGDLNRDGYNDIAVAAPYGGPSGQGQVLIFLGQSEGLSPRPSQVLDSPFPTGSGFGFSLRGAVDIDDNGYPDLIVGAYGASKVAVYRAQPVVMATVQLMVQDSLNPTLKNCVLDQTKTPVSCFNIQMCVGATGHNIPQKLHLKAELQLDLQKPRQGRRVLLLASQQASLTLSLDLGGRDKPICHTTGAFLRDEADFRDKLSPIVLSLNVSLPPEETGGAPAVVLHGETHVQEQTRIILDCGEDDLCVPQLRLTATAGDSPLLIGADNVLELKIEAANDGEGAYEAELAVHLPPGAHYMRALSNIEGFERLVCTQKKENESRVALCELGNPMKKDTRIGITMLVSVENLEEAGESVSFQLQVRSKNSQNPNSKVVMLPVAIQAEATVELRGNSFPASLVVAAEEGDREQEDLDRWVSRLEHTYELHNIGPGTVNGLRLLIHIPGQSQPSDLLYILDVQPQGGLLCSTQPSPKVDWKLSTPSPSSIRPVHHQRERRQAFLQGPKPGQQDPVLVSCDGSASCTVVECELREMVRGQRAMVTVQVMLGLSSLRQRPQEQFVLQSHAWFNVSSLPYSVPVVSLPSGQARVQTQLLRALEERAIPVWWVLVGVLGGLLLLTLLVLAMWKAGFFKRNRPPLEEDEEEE
platelet glycoprotein (GP) IIb/IIIa on platelets of mouse platelet rich plasma (mouse), sequence (O54890 26-787, chain 2 of 2, further chain): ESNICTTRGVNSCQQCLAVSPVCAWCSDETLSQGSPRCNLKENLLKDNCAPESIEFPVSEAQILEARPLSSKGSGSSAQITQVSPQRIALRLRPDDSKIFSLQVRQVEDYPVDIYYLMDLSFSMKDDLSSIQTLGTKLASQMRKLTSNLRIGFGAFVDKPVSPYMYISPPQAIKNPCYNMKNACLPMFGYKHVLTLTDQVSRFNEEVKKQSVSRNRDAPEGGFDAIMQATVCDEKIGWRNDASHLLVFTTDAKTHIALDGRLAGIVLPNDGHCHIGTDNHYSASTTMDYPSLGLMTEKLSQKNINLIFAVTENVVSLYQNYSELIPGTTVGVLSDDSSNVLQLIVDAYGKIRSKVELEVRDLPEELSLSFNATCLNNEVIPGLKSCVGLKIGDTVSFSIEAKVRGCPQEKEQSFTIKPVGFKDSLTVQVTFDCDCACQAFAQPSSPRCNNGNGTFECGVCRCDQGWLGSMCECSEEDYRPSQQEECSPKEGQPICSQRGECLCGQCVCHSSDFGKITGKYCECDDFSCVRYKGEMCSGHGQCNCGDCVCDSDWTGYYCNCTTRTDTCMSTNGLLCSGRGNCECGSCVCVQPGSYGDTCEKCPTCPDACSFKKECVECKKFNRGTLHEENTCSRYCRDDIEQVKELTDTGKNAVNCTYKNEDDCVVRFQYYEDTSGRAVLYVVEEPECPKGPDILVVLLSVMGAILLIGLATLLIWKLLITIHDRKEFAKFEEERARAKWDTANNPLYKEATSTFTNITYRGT

As to “recombinant saxatilin (from UniProt Q9DGH6 1-73) (ligand)”, the IC50 of inhibition of ADP-induced platelet aggregation, mouse PRP, aggregometer is 176 nM and the treatment concentration giving a similar level of platelet aggregation inhibition came to 0.7 µM.
